Test [1] deals with rHuman ErbB2/Fc Chimera, CF (R&D Systems Cat#1129-ER) (human) (UniProt P04626). Briefly: ECL multispot (MSD) binding assay, antigen spotted on plate, Fab 0.04 uM.
In test [2] the target is Recombinant Human DLL4 (R&D Systems Cat#1506-D4/CF) (human) (UniProt Q9NR61). In words: ELISA, DLL4 coated on plate, Fab at 2.22 nM. (An ELISA detects its analyte on a solid surface through an enzyme-linked reagent.)
For test [3] the target is unchanged. Briefly: ELISA, DLL4 coated on plate, Fab at […].
The target is the same in test [4]. Briefly: ELISA, DLL4 coated on plate, Fab at 20 nM.
For test [5] the target is unchanged. In words: ELISA, DLL4 coated on plate, Fab at 0.74 nM.
Test [6] has as its target rHuman P-Cadherin/Fc Chimera, CF (R&D Systems Cat#861-PC) (human) (UniProt P22223). Briefly: Multispot ECL (MSD), antigen spotted on plate, Fab […]; blank spot 276.
Test [7] has the same target. In words: Multispot ECL (MSD), antigen spotted on plate, Fab […]; blank spot 357.
For test [8] the target is unchanged. In words: Multispot ECL (MSD), antigen spotted on plate, Fab 580 nM; blank spot 679.
Test [9] shares this target. Briefly: Multispot ECL (MSD), antigen spotted on plate, Fab 36.3 nM; blank spot 314.
Test [10] addresses rHuman Notch-1/Fc Chimera, CF (R&D Systems Cat#3647-TK) (human) (UniProt P46531). Briefly: ECL multispot (MSD) assay, antigen spotted on plate, 20 nM Fab.

B1: Fab VH5-51_IGHD5-18*01>3_IGHJ4*01 G100K/G104T (H:KT) & V3-4_IGLJ1*01 L92A (Fab, V domains shown)
VH: EVQLVQSGAEVKKPGESLKISCKGSGYSFTSYWIGWVRQMPGKGLEWMGIIYPGDSDTRYSPSFQGQVTISADKSISTAYLQWSSLKASDTAMYYCARRKYSYTYDYFDYWGQGTLVTVSS
VL: QTVVTQEPSFSVSPGGTVTLTCGLSSGSVSTSYYPSWYQQTPGQAPRTLIYSTNTRSSGVPDRFSGSILGNKAALTITGAQADDESDYYCVAYMGSGISYVFGTGTKVTVL
In test [1], B1 showed an ECL signal of 1370.

B2: Fab VH5-51_IGHD5-18*01>3_IGHJ4*01 G100K/G104T G24A/S28R/G35V (H:KT ARV) & V3-4_IGLJ1*01 M94R/S96M (L:RM) (Fab, V domains shown)
VH: EVQLVQSGAEVKKPGESLKISCKASGYRFTSYWIVWVRQMPGKGLEWMGIIYPGDSDTRYSPSFQGQVTISADKSISTAYLQWSSLKASDTAMYYCARRKYSYTYDYFDYWGQGTLVTVSS
VL: QTVVTQEPSFSVSPGGTVTLTCGLSSGSVSTSYYPSWYQQTPGQAPRTLIYSTNTRSSGVPDRFSGSILGNKAALTITGAQADDESDYYCVLYRGMGISYVFGTGTKVTVL
Consider B2, for which the ELISA signal in [2] came to 0; in [3], 0.034; in test [4], 0.006; in [5] it was 0.

B3: Fab VH5-51_IGHD5-18*01>3_IGHJ4*01 G100K/G104T G24L/S28R/G35V (H:KT LRV) & V3-4_IGLJ1*01 M94R/S96M (L:RM) (Fab, V domains shown)
VH: EVQLVQSGAEVKKPGESLKISCKLSGYRFTSYWIVWVRQMPGKGLEWMGIIYPGDSDTRYSPSFQGQVTISADKSISTAYLQWSSLKASDTAMYYCARRKYSYTYDYFDYWGQGTLVTVSS
VL: QTVVTQEPSFSVSPGGTVTLTCGLSSGSVSTSYYPSWYQQTPGQAPRTLIYSTNTRSSGVPDRFSGSILGNKAALTITGAQADDESDYYCVLYRGMGISYVFGTGTKVTVL
As to B3, the ELISA signal in [2] was found to be 0; in test [3] it was 0; in [4] it was 0.003; in test [5], 0.

B4: Fab VH4-34_IGHD7-27*01_IGHJ4*01 & V1-4_IGLJ4*01 (Fab, V domains shown)
VH: QVQLQQWGAGLLKPSETLSLTCAVYGGSFSGYYWSWIRQPPGKGLEWIGEINHSGSTNYNPSLKSRVTISVDTSKNQFSLKLSSVTAADTAVYYCARANWGDYFDYWGQGTLVTVSS
VL: QSALTQPASVSGSPGQSITISCTGTSSDVGGYNYVSWYQQHPGKAPKLMIYEVSNRPSGVSNRFSGSKSGNTASLTISGLQAEDEADYYCSSYTSSSTLFVFGGGTQLIIL
In test [6], B4 yielded an ECL signal at 9.1 nM Fab of 589. This molecule showed an ECL signal at 145 nM Fab in test [7] of 850. Further, in test [8], the ECL signal at 580 nM Fab was 2240. In test [9], this molecule returned an ECL signal at 36.3 nM Fab of 684.

B5: Fab VH3-23_IGHD2-21*01>3_IGHJ6*01 H100E/S108P/Y113G T58A & V2-13_IGLJ2*01 (Fab, V domains shown)
VH: EVQLLESGGGLVQPGGSLRLSCAASGFTFSSYAMSWVRQAPGKGLEWVSSISGSGGSAYYADSVKGRFTISRDNSKNTLYLQMNSLRAEDTAVYYCAKEEIVVVIAIPYYYYGYGMDVWGQGTLVTVSS
VL: SSELTQDPAVSVALGQTVRITCQGDSLRSYYASWYQQKPGQAPVLVIYGKNNRPSGIPDRFSGSSSGNTASLTITGAQAEDEADYYCNSRDSSGNHLVVFGGGTKLTVL
Take B5: the ECL signal/blank ratio (read-out not given) in test [10] turned out to be 3.1.

B6: Fab VH3-23_IGHD2-21*01>3_IGHJ6*01 H100E/S108P/Y113G D62A & V2-13_IGLJ2*01 (Fab, V domains shown)
VH: EVQLLESGGGLVQPGGSLRLSCAASGFTFSSYAMSWVRQAPGKGLEWVSSISGSGGSTYYAASVKGRFTISRDNSKNTLYLQMNSLRAEDTAVYYCAKEEIVVVIAIPYYYYGYGMDVWGQGTLVTVSS
VL: SSELTQDPAVSVALGQTVRITCQGDSLRSYYASWYQQKPGQAPVLVIYGKNNRPSGIPDRFSGSSSGNTASLTITGAQAEDEADYYCNSRDSSGNHLVVFGGGTKLTVL
B6: the ECL signal/blank ratio (read-out not given) in test [10] worked out at 3.5.

(Values after patent US20120316071A1.)
